Among the data in the PETadex activity labels (doi:10.1042/bj20021862) are Km, kcat and kcat/Km values, retold here.

B1: unnamed (protein)
chain: MRPPWYPLHTPSLAFPLLFLLLSLLGGGARAEGREDPQLLVRVRGGQLRGIRLKAPGGPVSAFLGIPFAEPPVGSRRFMPPEPKRPWSGVLDATTFQNVCYQYVDTLYPGFEGTEMWNPNRELSEDCLYLNVWTPYPRPASPTPVLIWIYGGGFYSGAASLDVYDGRFLAQVEGAVLVSMNYRVGTFGFLALPGSREAPGNVGLLDQRLALQWVQENIAAFGGDPMSVTLFGESAGAASVGMHILSLPSRSLFHRAVLQSGTPNGPWATVSAGEARRRATLLARLVGCPPGGAGGNDTELIACLRTRPAQDLVDHEWHVLPQESILRISFVPVVDGDFLSDTPEALINTGDFQDLQVLVGVVKDEGSAFLVYGVPGFSKDNESLISRAQFLAGVRIGVPQASDLAAEAVVLHYTDWLHPEDPTHLRDAMSAVVGDHNVVCPVAQLAGRLAAQGARVYAYIFEHRASTLTWPLWMGVPHGYEIEFIFGLPLDPSLNYTTEERIFAQRLMKYWTNFARTGDPNDPRDSKSPQWPPYTTAAQQYVSLNLKPLEVRRGLRAQTCAFWNRFLPKLLSATDTLDEAERQWKAEFHRWSSYMVHWKNQFDHYSKQERCSDL
B2: unnamed (protein)
chain: B1 chain with L326F, I328F, F369A
B3: unnamed (protein)
chain: B1 chain with L326F, I328L
B4: unnamed (protein)
chain: B1 chain with I328A
B5: unnamed (protein)
chain: B1 chain with L326F, I328F, A368Y
B6: unnamed (protein)
chain: B1 chain with I328F, F369A
B7: unnamed (protein)
chain: B1 chain with E233Q, I328F
B8: unnamed (protein)
chain: B1 chain with L326A, I328F
B9: unnamed (protein)
chain: B1 chain with L326F

Residue numbers refer to the chain shown, from its start.

Substrate in the data set: Acetylcholine
As to conditions: pH 7; 22 °C.
Take B1: the Km was determined as 69 µM, the kcat turned out to be 250 s⁻¹ and the kcat/Km amounted to 3.62e+06 M⁻¹ s⁻¹.

On to B2, for which the Km stood at 150 µM, the kcat worked out at 650 s⁻¹ and the kcat/Km was 4.33e+06 M⁻¹ s⁻¹.

On to B3, for which the Km was determined as 100 µM, the kcat is 667 s⁻¹ and the kcat/Km stood at 6.67e+06 M⁻¹ s⁻¹.

Regarding B4, the Km came out at 190 µM, the kcat was 183 s⁻¹ and the kcat/Km worked out at 965000 M⁻¹ s⁻¹.

Take B5: the Km is 47 µM, the kcat was found to be 2500 s⁻¹ and the kcat/Km was 5.32e+07 M⁻¹ s⁻¹.

Turning to B6, the Km is 150 µM, the kcat came to 283 s⁻¹ and the kcat/Km amounted to 1.89e+06 M⁻¹ s⁻¹.

Regarding B7, the Km stood at 100 µM, the kcat is 167 s⁻¹ and the kcat/Km came to 1.67e+06 M⁻¹ s⁻¹.

On to B8, for which the Km was 76 µM, the kcat stood at 333 s⁻¹ and the kcat/Km came to 4.39e+06 M⁻¹ s⁻¹.

As for B9, the Km was 340 µM, the kcat came out at 233 s⁻¹ and the kcat/Km was determined as 686000 M⁻¹ s⁻¹.

For orientation: Km means the substrate concentration at which the rate is half of its maximum. In general, kcat refers to the maximal rate divided by the concentration of active sites. For orientation: kcat/Km means the second-order rate constant that governs catalysis at low substrate concentration.
